Reference: US20240124563A1

Tests used:
[1] = biological target: monkey MSLN full-length protein on HEK293T cells (monkey); experiment: FACS, HEK293T-monkey MSLN cells
[2] = biological target: human MSLN-R1-his protein (human) (UniProt Q13421); experiment: ELISA, coated antigen, 100 nM antibody
[3] = biological target: monkey MSLN full-length protein on HEK293T cells (monkey); experiment: FACS, HEK293T-monkey-MSLN cells, antibody 4 nM
[4] = biological target: monkey MSLN full-length protein on HEK293T cells (monkey); experiment: FACS, HEK293T-monkey-MSLN cells, antibody 20 nM
[5] = biological target: monkey MSLN full-length protein on HEK293T cells (monkey); experiment: FACS, HEK293T-monkey-MSLN cells, antibody 0.8 nM
[6] = biological target: monkey MSLN full-length protein on HEK293T cells (monkey); experiment: FACS, HEK293T-monkey-MSLN cells, antibody 100 nM
[7] = biological target: monkey MSLN full-length protein on HEK293T cells (monkey); experiment: FACS, HEK293T-monkey-MSLN cells, antibody 0.16 nM
[8] = biological target: monkey MSLN full-length protein on HEK293T cells (monkey); experiment: FACS, HEK293T-monkey-MSLN cells, antibody 0.032 nM
[9] = biological target: monkey MSLN full-length protein on HEK293T cells (monkey); experiment: FACS, HEK293T-monkey-MSLN cells, antibody 0.0064 nM
[10] = biological target: monkey MSLN full-length protein on HEK293T cells (monkey); experiment: FACS, HEK293T-monkey-MSLN cells, antibody 0.00128 nM
[11] = biological target: human MSLN-R3-rFc protein (human) (UniProt Q13421); experiment: ELISA, antibody 4 nM
[12] = biological target: human MSLN-R3-rFc protein (human) (UniProt Q13421); experiment: ELISA, antibody 1 nM
[13] = biological target: human MSLN-R3-rFc protein (human) (UniProt Q13421); experiment: ELISA, antibody 20 nM
[14] = biological target: human MSLN-R3-rFc protein (human) (UniProt Q13421); experiment: ELISA, antibody 100 nM
[15] = biological target: human MSLN-R3-rFc protein (human) (UniProt Q13421); experiment: ELISA, antibody 0.0064 nM
[16] = biological target: human MSLN-FL-his protein (human) (UniProt Q13421); experiment: ELISA, coated antigen, 20 nM antibody
Chain of human MSLN-FL-his protein (human) (Q13421 other isoform, or with tags, fused parts or gaps): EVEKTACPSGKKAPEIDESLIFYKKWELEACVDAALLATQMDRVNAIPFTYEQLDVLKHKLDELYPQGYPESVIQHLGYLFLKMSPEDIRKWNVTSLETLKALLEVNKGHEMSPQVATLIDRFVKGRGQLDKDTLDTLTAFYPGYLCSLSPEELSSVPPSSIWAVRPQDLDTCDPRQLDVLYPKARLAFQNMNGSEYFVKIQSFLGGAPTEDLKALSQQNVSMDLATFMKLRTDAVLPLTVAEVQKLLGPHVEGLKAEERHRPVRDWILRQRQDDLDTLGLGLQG

[17] = biological target: human MSLN-R2-his protein (human) (UniProt Q13421); experiment: ELISA, coated antigen, 100 nM antibody
Chain of human MSLN-R2-his protein (human) (Q13421 other isoform, or with tags, fused parts or gaps): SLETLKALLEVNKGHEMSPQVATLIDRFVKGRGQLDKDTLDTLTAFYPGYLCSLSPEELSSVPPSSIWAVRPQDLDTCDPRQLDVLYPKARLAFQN

[18] = biological target: human MSLN-FL-his protein (human) (UniProt Q13421); experiment: ELISA, coated antigen, 0.2 nM antibody

Chain of human MSLN-R1-his protein (human) (Q13421 other isoform, or with tags, fused parts or gaps): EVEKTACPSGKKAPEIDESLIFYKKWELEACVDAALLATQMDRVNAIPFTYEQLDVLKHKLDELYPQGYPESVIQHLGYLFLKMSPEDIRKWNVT

Tab108 (YP218, scFv-hIgG1 Fc) (Fc fusion)
EC50 [1]: 0.83 nM
Max MFI [1]: 4240
OD450 nm [2]: 0.12 OD450 nm

Tab131 (m912, scFv-hIgG1 Fc) (Fc fusion)
FACS signal (MFI) [3]: 86
FACS signal (MFI) [4]: 85
FACS signal (MFI) [5]: 87
FACS signal (MFI) [6]: 87
FACS signal (MFI) [7]: 83
FACS signal (MFI) [8]: 106
FACS signal (MFI) [9]: 85
FACS signal (MFI) [10]: 93

anti-human MSLN antibody (purchased from Acro, Cat. No. MSN-M30)
OD450 nm [11]: 0.23
OD450 nm [12]: 0.11
OD450 nm [13]: 0.86
OD450 nm [14]: 1.11
OD450 nm [15]: 0.16

hIgG1 (IgG control) (antibody)
OD450 nm [16]: 0.28 OD450 nm
OD450 nm [2]: 0.2 OD450 nm
OD450 nm [17]: 0.16 OD450 nm
OD450 nm [18]: 0.24 OD450 nm
